Laboratory results reported in the supplement of paper PMC9170038.

Test system: MS2 coat protein
Assay: apparent KD of MS2 coat protein; designed switch direction (-1 OFF switch, 1 ON switch): -1; higher = weaker reporter binding
Outline: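 On Illumina chips, designed RNA switches with common flanks were made by stalled E. coli RNA polymerase. Titrations with SNAP-549-labelled MS2 coat protein, doubling from 0.7 or 1.5 nM to 3 µM, were done with no input, with 200 uM small-molecule ligand, or with an oligonucleotide input. Apparent KD is the median per design over clusters, from curve fits of normalised cluster fluorescence.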

[1] = input ligand: microRNA oligo, concentration not stated
[2] = Eterna round: R95, input ligand: microRNA oligo, concentration not stated
[3] = Eterna round: R95, input ligand: FMN 200 uM
[4] = Eterna round: R95, input ligand: none

Sequence	apparent KD of MS2 coat protein (input ligand: FMN 200 uM) [nM]	apparent KD of MS2 coat protein [1] [nM]	apparent KD of MS2 coat protein (input ligand: none) [nM]	apparent KD of MS2 coat protein [2] [nM]	apparent KD of MS2 coat protein [3] [nM]	apparent KD of MS2 coat protein [4] [nM]
AAACGGCAGGGAGGAUAUGCUUGCCUGGGUCGUCUUCAAACAUGAGGAUCACCCAUGUAGUCGACGCAGAAGGCCCUCAAAGCC [JL ViennaUCT Ontiis mod 4] (Eterna round: R96, puzzle: Exclusion NG 2)	42.9	8.85	16.7			
CUCAUGUGAGGAUAUCAGUAGUGAUACGAUAGUAUUACUGCUGAGAAGGUACAUGAGGAUCACCCAUGUUCCUC [Exclusion 4 - Mod Omei Ex4 344 mod 4 v.3] (puzzle: Exclusion 4)				26.9		
GCUUGUGGGCAAGGAUAUCCUACGUUGUUCUGGUUCGUGUCUGUCACAUGAGGAUCACCCAUGUGGGAGAAGGUGCAUUUGGUU [Design 60] (Eterna round: R96, puzzle: Exclusion NG 2)	15.4	12.4	17.2			
AGCUAGUCAGGAUAUACGAACACCUCAAAAGAGGUGAAGGGACAUGAGGAUCACCCAUGUAGAAGGGACUAGCA [Mat - Exclusion 2 - JL mod - D29] (Eterna round: R96, puzzle: Exclusion 2)	167	21.3	24.3			
UAUGGGUCUACAGGAUAUUCCAGUAGAUAGAAGGGAGAAGGGUGGGCCUAUACUUGAGGAUCACCCAAGUGAAAAGGGUCAUCC [Mutated MS2 EX1.13] (Eterna round: R96, puzzle: Exclusion NG 1)	27.9	24.8	36.6			
GCGGAGAUCGUAUGAUAAUACAUGAGGAUCACCCAUGUGUAUACGAUGCAUGGUACCCGCCGCUUUGCUUGUCUUGC [Eternabot (L1) Solution 30] (Eterna round: R97, puzzle: Sensor, turn-off variant 1)	16.4		16.7			
AAGAAGAAGUAAGGAUAUGAAGAUCUGGUGGUGACAUGAGGAUCACCCAUGUGAAAACGAUAAGAUCAGAAGGUAUAAGAAGAA [AK ExNG2-3.2] (Eterna round: R96, puzzle: Exclusion NG 2)	86.8	48.4	85.8			
AGCUGUGGCCGAGGAUAUCUAUCCAAUAUAACCGAAAUAUAAUCGGACAUGAGGAUCACCCAUGUAGAGAAGGCGGUCUCAGCA [Eli eng2 - 093] (Eterna round: R96, puzzle: Exclusion NG 2)		15.3				
CACUAACAUGAGGAUCACCCAUGUUAGGAUAUGCAGUUCGGCCAACGGGCCCGAACAUGUAGAAGGAACAGGGU [Eternabot (L2) Solution 44] (Eterna round: R97, puzzle: Exclusion 1)	81.3		25.8			
UGCAGACGAGGAUAUGAUUAAUAAUACAUGAGGAUCACCCAUGUAAUACUGAUCUAUGGAUCAGAAGGUGUCUGCA [E5/6-B2] (Eterna round: R97, puzzle: Exclusion 5)	17.7		28.3			
UAAUUAAAUGUAGGAUAUCUGCACGUGUAGUGCAGAGAAGGACAUGAGGAUCACCCAUGUAGAUCAAAUUAAAUUAAUUUAAUU [ENG1/5-D3] (Eterna round: R96, puzzle: Exclusion NG 1)	54	21.5	23.7			
GAUUAUGCGAGCUUUAGGGACAUGAGGAUCACCCAUGUUCGUCUUAUUGGUCUAGGUGCGCUAACAUACCUAAAUCU [JMF 51] (puzzle: Sensor v3, turn-off variant 1)				34.8	21.9	25.4
GGGCUGGGAGGAUAUUCGUUUGGAGACAUGAGGAUCACCCAUGUGAUGCGAGGGAAGUCCGGAGAAGGCUCGGUUC [-24.8, -21.2 kcal, 22% A] (Eterna round: R97, puzzle: Exclusion 5)	24		15.9			
AAAUAUCAUGUAGGAUAUGGAAGGCGAACCUAUCCAGAAGGACAUGAGGAUCACCCAUGUGCUGCGUUGUCCGUAGACAGCGCU [Ex NG1 #2] (Eterna round: R96, puzzle: Exclusion NG 1)	88.2	21.1	31.4			
AAUUAGUAUGUGAGGAUAUUGACGUAAUGACUGGUUAAGAAGGCACAUGAGGAUCACCCAUGUGGGAAGUCACG [JR_BMEx4_Sub011] (Eterna round: R97, puzzle: Brourd's mod of Exclusion 4)	56.8		15.2			
GCGGCUGACGUCAGGAUAUCCGUACCGUAUGGGUGGGAGAAGGGACAUGAGGAUCACCCAUGUUAAUCUAUUAA [Eternabot (L1) Solution 45] (Eterna round: R97, puzzle: Brourd's mod of Exclusion 4)	62.7		58.4			
ACCUUACUGGUCAGGAUAUACAGUCUUUGGUGUGUGUAGAAGGGACAUGAGGAUCACCCAUGUAGGUUGCAGUA [alecazam60] (Eterna round: R97, puzzle: Brourd's mod of Exclusion 4)	77.6		67.7			

Sequence	apparent KD of MS2 coat protein (input ligand: FMN 200 uM) [nM]	apparent KD of MS2 coat protein [1] [nM]	apparent KD of MS2 coat protein (input ligand: none) [nM]	apparent KD of MS2 coat protein [2] [nM]	apparent KD of MS2 coat protein [3] [nM]	apparent KD of MS2 coat protein [4] [nM]
AGAUGUAGAUACCGAUCCUACAUGAGGAUCACCCAUGUAGCUAGACGUGCCCGCGUCGCUCGUCAGACUACCAGUAG [salish99_TOv1_r3_090] (puzzle: Sensor v3, turn-off variant 1)				248	252	269
GGCAAUAUGUAGGAUAUCGUAAUGGAAACAUUACGAGAAGGGCAAACAUGAGGAUCACCCAUGUUCCUUAAGCC [Mat - Exclusion 6 - Eli Mod - D69] (puzzle: Exclusion 6)				15	21.5	18.4
CUUUUGUGAGGAUAUCAGUAGUAAAAAAAUAAAAUUACUAUUGAGAAGGCACAUGAGGAUCACCCAUGUUCCUC [salish99_ex4_r3_029] (puzzle: Exclusion 4)				36.4		
GGUUUGGGAGGAUAUGGUUUGAAUAACAUGAGGAUCACCCAUGUAAAUAGAUCUUCUAGGCCAGAAGGCUCGGGCC [-22.1, -20.72 kcal, A 28%] (Eterna round: R97, puzzle: Exclusion 5)	46		27.8			
AUUGGACACUCAGGAUAUCAGGUUCUAUACAUGAGGAUCACCCAUGUGGGCGAACCCAUGAUAGCUGAGAAGGGAGUAAUCCUA [Orxete] (Eterna round: R96, puzzle: Exclusion NG 2)	39	11.9	19.4			
AUUACGCAGUAGGAUAUGGGCGGUGAGCACCGUCCAGAAGGACUGACAUGAGGAUCACCCAUGUCCUCCCACAC [Eternabot (L2) Solution 42] (Eterna round: R97, puzzle: Exclusion 6)	497		55.8			
CUGGUCCGAGGAUAUAUUAUGUGAUACAUGAGGAUCACCCAUGUUAUAUAAUGGAUGUAAAUAGAAGGCGGACUAG [JL-ex5-3.16] (puzzle: Exclusion 5)				43.2	60.3	44
UUUUAACAUGAGGAUCACCCAUGUGAGGAUAUCGAAAUUUAUAUUAAUAUUAAUAUAUCGAGAAGGCACAUUUU [JMF 24] (puzzle: Exclusion 1)				74.9		
AAAUCCCGAGGAUAUACAUGAGGAUCACCCAUGUAAUCAAACAGGGCAAAUUGAUCCGGUAGAAGGCGGACAAU [EX3 A.26] (Eterna round: R97, puzzle: Exclusion 3)	26.6		13.5			
UUUCCGGCGCGGGUUUUUUACAUGAGGAUCACCCAUGUCCUCUGCUUGUCUUGUCUUGGGCUUUUUUUGGGUUCGGG [-19, -39.7 kcal, A 8%] (Eterna round: R97, puzzle: Sensor, turn-off variant 1)	697					
GUCUUAAGUUAAACCGAUUACAUGAGGAUCACCCAUGUGAACAUGACAGUCCGCAUGAGGAGUUUCUUGCUCGUCAU [Eternabot (L1) Solution 28] (Eterna round: R97, puzzle: Sensor, turn-off variant 1)	49.6		46.8			
GAUUAUGCGAGCUUUAGGGACAUGAGGAUCACCCAUGUUCGUCUUAUUGGUCUGGAUACACUGACAUACCUAAAUCU [JMF 60] (puzzle: Sensor v3, turn-off variant 1)				22.6	16.8	18.4
UAUUAGCAAGUGAGAUCCCACAUGAGGAUCACCCAUGUGCUCGUCUUAUAAGGUACUGUGACGAGAGUCACGGUACC [Mat - Sensor, turn-off var - Eli Mod - D2] (Eterna round: R97, puzzle: Sensor, turn-off variant 1)	46.1		44.7			
CUGAGCAGACGAAGAUCCAACAUGAGGAUCACCCAUGUCUCAAAAGCUUUUUGCUCGUCUUAUCCUUCUCUGUUCUC [Reisedzaqu] (puzzle: Sensor v3, turn-off variant 1)				176	16	13
GUCCGGCAUGUAGGAUAUGGAUCCGAUUAGGAUUUAGAAGGACAUGAGGAUCACCCAUGUACAUGUAAUUAGUCAUUACCGGAC [EXclNG1-LROPPY02] (Eterna round: R96, puzzle: Exclusion NG 1)	40.2	17.8	22.2			
AUAAAGCAAGCAUGAUCCCACAUGAGGAUCACCCAUGUGUUCGUCUUAUAGGCUGCUGAGGCUUUUGCCUCGGUGGC [LRO Sensor-off var1-06 loose mod of D91 from Mat747] (Eterna round: R97, puzzle: Sensor, turn-off variant 1)	69		67.9			
